Results published in PMC11633098.

Experiments:
human plasmin (human) [1] = test: ELISA; solid-phase binding: Plg, Pln or BSA immobilised on 4HBX plates; increasing concentrations (1 nM to 4 µM) of recombinant protein; anti-His HRP detection; one-site specific binding fit; apparent KD
[2] = biological target: human plasminogen (human) (UniProt P00747); test: as above
human plasmin (human) [3] = biological target: human plasmin (human)
human plasmin (human) [4] = biological target: human plasmin (human); remark: listed apart in the source
human plasmin (human) [5] = test: ELISA; inhibition assay: Plg or Pln coated at 0.5 µg/well; 100 nM rSesY with 0 to 10 mM tranexamic acid or arginine; anti-His HRP detection; RT, 1 h
[6] = biological target: human plasminogen (human) (UniProt P00747); test: as above

UniProt P00747, sequence (P00747 20-810): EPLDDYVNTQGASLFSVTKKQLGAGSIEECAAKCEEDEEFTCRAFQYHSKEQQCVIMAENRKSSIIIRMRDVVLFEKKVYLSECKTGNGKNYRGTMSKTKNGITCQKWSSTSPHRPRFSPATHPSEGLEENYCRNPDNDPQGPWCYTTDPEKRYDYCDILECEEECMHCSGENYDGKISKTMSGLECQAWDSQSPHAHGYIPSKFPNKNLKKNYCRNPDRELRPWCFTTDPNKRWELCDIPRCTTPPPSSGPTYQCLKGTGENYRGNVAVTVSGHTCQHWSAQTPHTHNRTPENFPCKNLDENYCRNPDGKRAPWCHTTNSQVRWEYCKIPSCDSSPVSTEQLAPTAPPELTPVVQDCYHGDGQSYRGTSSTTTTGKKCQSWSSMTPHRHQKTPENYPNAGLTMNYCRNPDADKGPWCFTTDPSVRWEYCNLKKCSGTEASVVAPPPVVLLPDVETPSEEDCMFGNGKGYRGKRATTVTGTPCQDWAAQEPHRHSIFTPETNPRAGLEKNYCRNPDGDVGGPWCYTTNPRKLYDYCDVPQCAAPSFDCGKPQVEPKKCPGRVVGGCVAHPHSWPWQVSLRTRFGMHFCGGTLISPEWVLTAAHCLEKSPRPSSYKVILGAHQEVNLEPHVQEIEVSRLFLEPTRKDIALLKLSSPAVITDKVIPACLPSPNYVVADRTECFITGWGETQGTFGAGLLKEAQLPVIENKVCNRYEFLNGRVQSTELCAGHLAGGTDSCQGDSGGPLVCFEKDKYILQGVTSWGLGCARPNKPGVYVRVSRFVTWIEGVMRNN

Row | Substance | Kd (human plasmin (human) [1]) [nM] | Kd [2] [nM] | Vmax of Pln on S-2251 without and with rSesY (0 to 10 µM) (human plasmin (human) [3]) [nM/min] | fibrin gel remaining at 6 h and 12 h after digestion of pre-formed fibrin gel by Pln with 1, 2.5, 5 and 10 µM rSesY (38% to over 80%) (human plasmin (human) [4]) [%] | fibrin gel remaining at 12 h after digestion of pre-formed fibrin gel by Pln with 5 µM rSesY (controls 10%–25%) (human plasmin (human) [4]) [%] | percent reduction of binding by 2 mM tranexamic acid (human plasmin (human) [5]) [%] | percent reduction of binding by 2 mM tranexamic acid [6] [%]
1 | recombinant SesY_(32–341) (S. epidermidis surface protein Y) (domain or fragment) | 16 | 210 | 1.8 | > 80 | 80 | > 85 | > 85
2 | recombinant fibronectin-binding protein B N2N3 domain from S. aureus (from UniProt A0A0H2XKG3 37-940) (domain or fragment) | – | 30 | – | – | – | – | –
